Test results reported in patent US9290743B2, “L-aspartate oxidase variant and a method for producing quinolinate or nicotinic acid using the same” (CJ CHEILJEDANG CORP., priority 2013, dated 2016).

Tested on: L-aspartate oxidase
Assay: Activity test of L-aspartate oxidase variants (H2O2, Amplex Red, absorbance at 560 nm) with NAD added
Type: biochemical, E. coli
Experimental: After the recombinant vector pT7-nadB, pT7-nadB67, pT7-nadB67(V), pT7-nadB67(L), pT7-nadB67(I), or pT7-nadB67(H) was transformed into a tuner strain via CaCl2 method, the transformed strain was smeared on a LB-SP (yeast extract 10 g/L, NaCl 5 g/L, tryptone 10 g/L, and spectinomycin […]) plate medium, and cultured overnight at 37[…] to select spectinomycin-resistant colonies. One colony was selected from them and cultured in a LB-SP (yeast extract 10 g/L, NaCl 5 g/L, tryptone 10 g/L, spectinomycin […]) liquid medium, and then a isopropyl-1-thio-β-D-galactopyranoside (IPTG) derivative was added thereto when the growth optical density (OD) value reached to 0.4, and cultured at about 18[…] overnight. Cells including the overexpressed wild type L-aspartate oxidase and L-aspartate oxidase variants were recovered from the culture medium, followed by purification of the wild type L-aspartate oxidase and L-aspartate oxidase variants from the recovered cells by Ni-NTA spin kit (Quiagen, U.S.A). The recovered protein was 50% of a total protein, about 2% of the recovered protein was recovered as L-aspartate oxidase.
The L-aspartate oxidase converts aspartate as a substrate to iminoaspartate in the presence of an FAD as cofactor, and the imminoaspartate is converted b to oxaloacetate. Hydrogen peroxide (H2O2), that is generated through the above-described reaction, was used to identify the activity of the nadB. Absorbance at 560 nm of a reaction product of H2O2 with a product from the reaction was measured using an Amplex Red (Invitrogen, Korea) to determine the activity of the nadB. Here, NAD was added at different concentrations to create a condition for competitive inhibition to FAD so as to evaluate the resistance of L-aspartate oxidase against the feedback regulation by NAD.

B1: Wild type-nadB: His-tagged wild type E. coli L-aspartate oxidase (SEQ ID NO: 1) purified from pT7-nadB expression (protein)
chain: MNTLPEHSCDVLIIGSGAAGLSLALRLADQHQVIVLSKGPVTEGSTFYAQGGIAAVFDETDSIDSHVEDTLIAGAGICDRHAVEFVASNARSCVQWLIDQGVLFDTHIQPNGEESYHLTREGGHSHRRILHAADATGREVETTLVSKALNHPNIRVLERSNAVDLIVSDKIGLPGTRRVVGAWVWNRNKETVETCHAKAVVLATGGASKVYQYTTNPDISSGDGIAMAWRAGCRVANLEFNQFHPTALYHPQARNFLLTEALRGEGAYLKRPDGTRFMPDFDERGELAPRDIVARAIDHEMKRLGADCMFLDISHKPADFIRQHFPMIYEKLLGLGIDLTQEPVPIVPAAHYTCGGVMVDDHGRTDVEGLYAIGEVSYTGLHGANRMASNSLLECLVYGWSAAEDITRRMPYAHDISTLPPWDESRVENPDERVVIQHNWHELRLFMWDYVGIVRTTKRLERALRRITMLQQEIDEYYAHFRVSNNLLELRNLVQVAELIVRCAMMRKESRGLHFTLDYPELLTHSGPSILSPGNHYINR
modifications: His tag; amino acid sequence of nadB
Molecule B1 has a Relative activity (NAD 0 mM) of 100%, a Relative activity (NAD 0.05 mM) of 95% and a Relative activity (NAD 0.3 mM) of 82%. The Relative activity (NAD 0.5 mM) was 65%, the Relative activity (NAD 1 mM) was 22% and the Relative activity (NAD 1 mM, listed as wild type L-aspartate oxidase) was “less than 50%”.
